Assays:
[1] = molecular target: T1, APP-Avi-soluble human LOX-1(61-273) (human, UniProt P78380 61-273); assay: SET, IgG vs soluble human LOX-1
Protocol: Affinity determination for anti-LOX-1 IgGs using Solution Equilibrium Titration (SET) was basically performed as described in the literature (Friguet et al., 1985 J Immunol Methods 77: 305-319). The assays were performed in a 96-well polypropylene plate (Thermo Scientific, Catalog no. AB-1127) using a constant concentration of LOX-1 antibody mixed with different concentrations of non-biotinylated human or cynomolgus monkey LOX-1 protein and incubated at 22° C. for 14 hours with constant shaking (300 rpm).
On a pre-blocked MSD plate (Meso Scale Discovery, catalog no. L21SA) biotinylated human or cynomolgus monkey soluble LOX-1 protein was immobilized and washed afterwards. The equilibrium binding reactions were then applied to the MSD plate with immobilized LOX-1 and incubated for 30 min. The unbound material was removed by washing the plate, and the captured antibody was detected by adding Sulfo-tagged goat anti-human IgG (Meso Scale Discovery, catalog no. R3AJ-1). After incubation and washing 1×MSD read buffer T(Meso Scale Discovery, catalog no. R92TC-2) was added and the plate was developed using a Sector Imager 6000 (Meso Scale Discovery). The data were transferred to Excel for analysis and plotted using GraphPad Prism v5. The KD values were determined by fitting the data to the following equation: […]

[2] = molecular target: T1, APP-Avi-soluble human LOX-1(61-273); assay: competition ELISA: oxLDL binding to plate-bound biotinylated human sLOX-1
Protocol: NeutrAvidin 384 well plates were coated with 2.5 μg/ml biotinylated LOX-1 diluted in PBS. After blocking with 25% Block Ace (AbD Serotec, Cat#BUF029) in PBS, purified Fabs or IgGs diluted in PBS/1% BSA were added. Subsequently OxLDL (copper-sulfate oxidized LDL, Kalen Biomedical #770202) or MDA-LDL (Academy Biomedical, #20P-UMD-L102) ligand diluted in PBS/1% BSA were allowed to bind to coated LOX-1. Secondary antibody (HRP conjugated sheep anti ApoB IgG; The Binding Site) diluted 1:1,000 in PBS/1% BSA was added followed by addition of TMB substrate (Thermo Scientific). After 10 minutes 1M H2SO4 was added and absorbance was determined at 450 nm. During early screenings, Fab fragments were also tested in this oxLDL binding assay using Fab-containing crude E. coli lysates.
The ability of LOX-1 antibodies to inhibit oxLDL binding to LOX-1 protein was determined using the method described in Example 4. In addition to “high binding OxLDL” from Kalen Biomedical (catalog number 770212-7), which is generated by copper sulfate mediated oxidation of LDL, two other forms of modified LDL were tested in this assay: malondialdehyde modified LDL (Academy Bio-Medical Co. catalog number 20P-MD-L105) and hypochlorite modified LDL. Hypochlorite modified LDL was prepared according to the following procedure. Human LDL (Kalen Biomedical catalog number 770200-4) was diluted with PBS to a final concentration of 0.25 mg/mL. Sodium hypochlorite (NaOCI, JT Baker catalog number 9416-01) was then added to 0.1 mM final concentration. The solution was incubated at room temperate for 4 hours, then quenched by adding L-methionine to a final concentration of reaction by adding 5 μl of 100 mM Mehionine per 200 μl total volume.

B1: MOR020151 (antibody, human IgG1, lambda, L234A L235A, V domains shown)
VH: QVQLVESGGGLVKPGGSLRLSCAASGFTFSSYALSWVRQAPGKGLEWVGRIKSKTMGGTSDYAAPVKGRFTISRDDSKNTLYLQMNSLKTEDTAVYYCARDFWADHYYYFDYWGQGTLVTVSS
VL: DIALTQPASVSGSPGQSITISCTGTSSDVGYINYVNWYQQHPGKAPKLMIYEVSNRPSGVSNRFSGSKSGNTASLTISGLQAEDEADYYCASWDWYDNVVFGGGTKLTVLG
notes: also called MOR20151
Kd [1]: 270 pM
IC50 [2]: 7000 pM

B2: MOR020052 (antibody, human IgG1, lambda, L234A L235A, V domains shown)
VH: QVQLVQSGAEVKKPGSSVKVSCKASGGTFSDYAISWVRQAPGQGLEWMGGIIPGFGQANYAQKFQGRVTITADESTSTAYMELSSLRSEDTAVYYCAREPSPLYGPYSDYVMDPWGQGTLVTVSS
VL: DIALTQPASVSGSPGQSITISCTGTSSDVGYFNFVSWYQQHPGKAPKLMIYDVSNRPSGVSNRFSGSKSGNTASLTISGLQAEDEADYYCASYGWDSSWVFGGGTKLTVLG
notes: also called MOR20052
Kd [1]: 500 pM
IC50 [2]: 12000 pM

B3: MOR021448 (antibody, V domains shown)
VH: QVQLVQSGAEVKKPGSSVKVSCKASGGTFSDYAISWVRQAPGQGLEWMGRVIRPYYGWTEYAQKFQGRVTITADESTSTAYMELSSLRSEDTAVYYCAREPSPLYGPYSDYVMDPWGQGTLVTVSS
VL: DIALTQPASVSGSPGQSITISCTGTSSDVGYFNFVSWYQQHPGKAPKLMIYDVSNRPSGVSNRFSGSKSGNTASLTISGLQAEDEADYYCASYGWDSSWVFGGGTKLTVLG
notes: IgG (human IgG1f LALA); parent MOR20052 with the printed HCDR2 stretch exchanged
Kd [1]: 0.3 pM

B4: MOR021449 (antibody, V domains shown)
VH: QVQLVQSGAEVKKPGSSVKVSCKASGGTFSDYAISWVRQAPGQGLEWMGGIQPGFAGAWYAQKFQGRVTITADESTSTAYMELSSLRSEDTAVYYCAREPSPLYGPYSDYVMDPWGQGTLVTVSS
VL: DIALTQPASVSGSPGQSITISCTGTSSDVGYFNFVSWYQQHPGKAPKLMIYDVSNRPSGVSNRFSGSKSGNTASLTISGLQAEDEADYYCASYGWDSSWVFGGGTKLTVLG
notes: as for B3
Kd [1]: 0.3 pM

B5: MOR020144 (antibody, human IgG1, lambda, L234A L235A, V domains shown)
VH: QVQLLESGGGLVQPGGSLRLSCAASGFTFSDYALHWVRQAPGKGLEWVSVISYSGGYTYYADSVKGRFTISRDNSKNTLYLQMNSLRAEDTAVYYCARSPGLTSYHDSWGQGTLVTVSS
VL: DIVLTQPPSVSGAPGQRVTISCSGSSSNIGSNYVSWYQQLPGTAPKLLIHSNSHRPSGVPDRFSGSKSGTSASLAITGLQAEDEADYYCQSWDYESERVVFGGGTKLTVLG
notes: also called MOR20144
Kd [1]: 0.2 pM
IC50 [2]: 5000 pM

B6: MOR021443 (antibody, V domains shown)
VH: QVQLVQSGAEVKKPGESLKISCKGSGYSFTNYWIAWVRQMPGKGLEWMGRIFPGKSETSYSPSFQGQVTISADKSISTAYLQWSSLKASDTAMYYCARGKRGATHPTQYEGWEVYGFDPWGQGTLVTVSS
VL: DIELTQPPSVSVSPGQTASITCSGDALGGKYASWYQQKPGQAPVLVIYDDNKRPSGIPERFSGSNSGNTATLTISGTQAEDEADYYCQSWAFYSGVFGGGTKLTVLG
notes: IgG (human IgG1f LALA); parent MOR20133 with the printed HCDR2 stretch exchanged
Kd [1]: 75 pM

B7: MOR021444 (antibody, V domains shown)
VH: QVQLVQSGAEVKKPGESLKISCKGSGYSFTNYWIAWVRQMPGKGLEWMGRIEPLSSTTEYSPSFQGQVTISADKSISTAYLQWSSLKASDTAMYYCARGKRGATHPTQYEGWEVYGFDPWGQGTLVTVSS
VL: DIELTQPPSVSVSPGQTASITCSGDALGGKYASWYQQKPGQAPVLVIYDDNKRPSGIPERFSGSNSGNTATLTISGTQAEDEADYYCQSWAFYSGVFGGGTKLTVLG
notes: as for B6
Kd [1]: 35 pM

B8: MOR021445 (antibody, V domains shown)
VH: QVQLVQSGAEVKKPGESLKISCKGSGYSFTNYWIAWVRQMPGKGLEWMGAIRPEWSETKYSPSFQGQVTISADKSISTAYLQWSSLKASDTAMYYCARGKRGATHPTQYEGWEVYGFDPWGQGTLVTVSS
VL: DIELTQPPSVSVSPGQTASITCSGDALGGKYASWYQQKPGQAPVLVIYDDNKRPSGIPERFSGSNSGNTATLTISGTQAEDEADYYCQSWAFYSGVFGGGTKLTVLG
notes: as for B6
Kd [1]: 30 pM

B9: MOR020159 (antibody, human IgG1, kappa, L234A L235A, V domains shown)
VH: QVQLVQSGAEVKKPGSSVKVSCKASGGTFSDYAISWVRQAPGQGLEWMGGIVPIVGTANYAQKFQGRVTITADESTSTAYMELSSLRSEDTAVYYCARDSSTSYYYYFDYWGQGTLVTVSS
VL: DIQMTQSPSSLSASVGDRVTITCRASQDINSWLAWYQQKPGKAPKLLIYQASNLQSGVPSRFSGSGSGTDFTLTISSLQPEDFATYYCQQIDHTPFTFGQGTKVEIKR
notes: also called MOR20159
Kd [1]: 560 pM
IC50 [2]: 5000 pM

B10: MOR021442 (antibody, V domains shown)
VH: QVQLVQSGAEVKKPGSSVKVSCKASGGTFSDYAISWVRQAPGQGLEWMGGIVPIVGTANYAQKFQGRVTITADESTSTAYMELSSLRSEDTAVYYCARDSSTSYYYYFDYWGQGTLVTVSS
VL: DIQMTQSPSSLSASVGDRVTITCRASQDINSWLAWYQQKPGKAPKLLIYQASNLQSGVPSRFSGSGSGTDFTLTISSLQPEDFATYYCQQMHRLPVTFGQGTKVEIKR
notes: IgG (human IgG1f LALA); parent MOR20159 with the printed LCDR3 stretch exchanged
Kd [1]: 4 pM

B11: MOR021441 (antibody, V domains shown)
VH: QVQLVQSGAEVKKPGSSVKVSCKASGGTFSDYAISWVRQAPGQGLEWMGGIVPIVGTANYAQKFQGRVTITADESTSTAYMELSSLRSEDTAVYYCARDSSTSYYYYFDYWGQGTLVTVSS
VL: DIQMTQSPSSLSASVGDRVTITCRASQDINSWLAWYQQKPGKAPKLLIYQASNLQSGVPSRFSGSGSGTDFTLTISSLQPEDFATYYCQQMKTFPITFGQGTKVEIKR
notes: as for B10
Kd [1]: 3 pM

B12: MOR021438 (antibody, V domains shown)
VH: QVQLVQSGAEVKKPGSSVKVSCKASGGTFSDYAISWVRQAPGQGLEWMGGIVPIVGTANYAQKFQGRVTITADESTSTAYMELSSLRSEDTAVYYCARDSSTSYYYYFDYWGQGTLVTVSS
VL: DIQMTQSPSSLSASVGDRVTITCRASQDINSWLAWYQQKPGKAPKLLIYQASNLQSGVPSRFSGSGSGTDFTLTISSLQPEDFATYYCQQMHRHPITFGQGTKVEIKR
notes: as for B10
Kd [1]: 2 pM

B13: MOR021440 (antibody, V domains shown)
VH: QVQLVQSGAEVKKPGSSVKVSCKASGGTFSDYAISWVRQAPGQGLEWMGGIVPIVGTANYAQKFQGRVTITADESTSTAYMELSSLRSEDTAVYYCARDSSTSYYYYFDYWGQGTLVTVSS
VL: DIQMTQSPSSLSASVGDRVTITCRASQDINSWLAWYQQKPGKAPKLLIYQASNLQSGVPSRFSGSGSGTDFTLTISSLQPEDFATYYCQQMQESLLTFGQGTKVEIKR
notes: as for B10
Kd [1]: 6 pM

B14: MOR021439 (antibody, V domains shown)
VH: QVQLVQSGAEVKKPGSSVKVSCKASGGTFSDYAISWVRQAPGQGLEWMGGIVPIVGTANYAQKFQGRVTITADESTSTAYMELSSLRSEDTAVYYCARDSSTSYYYYFDYWGQGTLVTVSS
VL: DIQMTQSPSSLSASVGDRVTITCRASQDINSWLAWYQQKPGKAPKLLIYQASNLQSGVPSRFSGSGSGTDFTLTISSLQPEDFATYYCQQMHRFPMTFGQGTKVEIKR
notes: as for B10
Kd [1]: 3 pM

B15: MOR021553 (antibody, V domains shown)
VH: QVQLLESGGGLVQSGGSLRLSCAASGFTFRSGAAMHWVRQAPGKGLEWVSSIEYFGSATLYADSVKGRFTISRDNSKNTLYLQMNSLRAEDTAVYYCARNFKYAMDYWGQGTLVTVSS
VL: DIALTQPASVSGSPGQSITISCTGTSSDVGSINYVSWYQQHPGKAPKMIYAVSYRPSGVSNRFSGSKSGNTASLTISGLQAEDEADYYCQVWDWRSDSRVFGGGTKLTVLG
notes: IgG (human IgG1f LALA); parent MOR20148 with the printed HCDR2 stretch exchanged
Kd [1]: 6 pM

B16: MOR021451 (antibody, V domains shown)
VH: QVQLVQSGAEVKKPGSSVKVSCKASGGTFSSYAISWVRQAPGQGLEWMGRIVPGFVYTSYAQKFQGRVTITADESTSTAYMELSSLRSEDTAVYYCARDPLYRSDYYYHWFDFWGQGTLVTVSS
VL: DIALTQPASVSGSPGQSITISCTGTSSDVGNFNYVSWYQQHPGKAPKLMIYGVNNRPSGVSNRFSGSKSGNTASLTISGLQAEDEADYYCAAYGWALDEVVFGGGTKLTVLG
notes: IgG (human IgG1f LALA); parent MOR20152 with the printed HCDR2 stretch exchanged
Kd [1]: 0.1 pM

B17: MOR021455 (antibody, V domains shown)
VH: QVQLVQSGAEVKKPGSSVKVSCKASGGTFSSYAISWVRQAPGQGLEWMGRIIPQWAGTPEYAQKFQGRVTITADESTSTAYMELSSLRSEDTAVYYCARDPLYRSDYYYHWFDFWGQGTLVTVSS
VL: DIALTQPASVSGSPGQSITISCTGTSSDVGNFNYVSWYQQHPGKAPKLMIYGVNNRPSGVSNRFSGSKSGNTASLTISGLQAEDEADYYCAAYGWALDEVVFGGGTKLTVLG
notes: as for B16
Kd [1]: 0.3 pM
